# Assay results as given in PMC4017264 (Molecular Cell, 2014).
# Substitutions are numbered along the chain they refer to. In names and notes the source's numbering stands. Non-standard residues stand in square brackets, D forms with d. No end group written: not given here. *: point of attachment. FITC = O=C1OC2(c3ccc(O)cc3Oc3cc(O)ccc32)c2ccc(NC(=S)*)cc21; pY = N[C@@H](Cc1ccc(OP(=O)(O)O)cc1)C(=O)O; Ahx = NCCCCCC(=O)O
# B1: fluorescently labeled OTULIN peptide (aa 49–67) Y56W (peptide)
# peptide: {FITC-Ahx}-AEHEEDMWRAADEIEKEKE
# B2: fluorescently labeled OTULIN peptide (aa 49–67) Y56F (peptide)
# peptide: AEHEEDMFRAADEIEKEKE
# modifications: not fully specified (N-terminus)
# B3: Y82F: V5-tagged HOIP with point mutation Y82F in the PUB binding site (protein, UniProt Q96EP0 1-1072, looked up, variant Y82F)
# E3 ubiquitin-protein ligase …: MPGEEEERAFLVAREELASALRRDSGQAFSLEQLRPLLASSLPLAARYLQLDAARLVRCNAHGEPRNYLNTLSTALNILEKFGRNLLSPQRPRYWRGVKFNNPVFRSTVDAVQGGRDVLRLYGYTEEQPDGLSFPEGQEEPDEHQVATVTLEVLLLRTELSLLLQNTHPRQQALEQLLEDKVEDDMLQLSEFDPLLREIAPGPLTTPSVPGSTPGPCFLCGSAPGTLHCPSCKQALCPACDHLFHGHPSRAHHLRQTLPGVLQGTHLSPSLPASAQPRPQSTSLLALGDSSLSSPNPASAHLPWHCAACAMLNEPWAVLCVACDRPRGCKGLGLGTEGPQGTGGLEPDLARGRWACQSCTFENEAAAVLCSICERPRLAQPPSLVVDSRDAGICLQPLQQGDALLASAQSQVWYCIHCTFCNSSPGWVCVMCNRTSSPIPAQHAPRPYASSLEKGPPKPGPPRRLSAPLPSSCGDPEKQRQDKMREEGLQLVSMIREGEAAGACPEEIFSALQYSGTEVPLQWLRSELPYVLEMVAELAGQQDPGLGAFSCQEARRAWLDRHGNLDEAVEECVRTRRRKVQELQSLGFGPEEGSLQALFQHGGDVSRALTELQRQRLEPFRQRLWDSGPEPTPSWDGPDKQSLVRRLLAVYALPSWGRAELALSLLQETPRNYELGDVVEAVRHSQDRAFLRRLLAQECAVCGWALPHNRMQALTSCECTICPDCFRQHFTIALKEKHITDMVCPACGRPDLTDDTQLLSYFSTLDIQLRESLEPDAYALFHKKLTEGVLMRDPKFLWCAQCSFGFIYEREQLEATCPQCHQTFCVRCKRQWEEQHRGRSCEDFQNWKRMNDPEYQAQGLAMYLQENGIDCPKCKFSYALARGGCMHFHCTQCRHQFCSGCYNAFYAKNKCPEPNCRVKKSLHGHHPRDCLFYLRDWTALRLQKLLQDNNVMFNTEPPAGARAVPGGGCRVIEQKEVPNGLRDEACGKETPAGYAGLCQAHYKEYLVSLINAHSLDPATLYEVEELETATERYLHVRPQPLAGEDPPAYQARLLQKLTEEVPLGQSIPRRRK
# modifications: V5 tag
# B4: K99E: V5-tagged HOIP with point mutation K99E in the PUB binding site (protein)
# chain: B3 E3 ubiquitin-protein ligase … with F82Y, K99E
# modifications: left off: V5, end not stated, kept
# B5: fluorescently labeled OTULIN peptide (aa 49–67) D54A (peptide)
# peptide: {FITC-Ahx}-AEHEEAMYRAADEIEKEKE
# B6: OTU domain: OTULIN catalytic (OTU) domain (aa 80–352) (protein)
# chain: LSVAPEMDIMDYCKKEWRGNTQKATCMKMGYEEVSQKFTSIRRVRGDNYCALRATLFQAMSQAVGLPPWLQDPELMLLPEKLISKYNWIKQWKLGLKFDGKNEDLVDKIKESLTLLRKKWAGLAEMRTAEARQIACDELFTNEAEEYSLYEAVKFLMLNRAIELYNDKEKGKEVPFFSVLLFARDTSNDPGQLLRNHLNQVGHTGGLEQVEMFLLAYAVRHTIQVYRLSKYNTEEFITVYPTDPPKDWPVVTLIAEDDRHYNIPVRVCEETSL
# modifications: left off: His6 (from the vector pOPINB), end not stated, state not stated
# Tests used:
# [1] = target: T1, HOIP PUB domain (HOIP 1-184) (Homo sapiens, UniProt Q96EP0); assay: fluorescence polarization binding of FITC-Ahx peptides to HOIP PUB domain; details: for reduction of HOIP binding versus wild-type OTULIN peptide: OTULIN peptide point mutants
# T1 construct: PUB domains from HOIP (aa 1–184, red); His6 (3C-cleavable, pOPINB) (N, cleaved yes); made in house; host or cells: E. coli Rosetta2 (DE3) pLacI
# T1 sequence (Q96EP0 1-184): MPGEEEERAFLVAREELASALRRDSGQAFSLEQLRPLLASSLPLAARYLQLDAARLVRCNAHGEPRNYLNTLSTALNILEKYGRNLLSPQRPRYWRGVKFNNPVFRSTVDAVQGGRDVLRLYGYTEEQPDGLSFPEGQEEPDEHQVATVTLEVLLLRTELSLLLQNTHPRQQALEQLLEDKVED
# Procedure: Serially diluted PUB domains and HOIP variants were mixed with an equal volume of 100 nM FITC-Ahx-labeled peptides of OTULIN and p97. Fluorescence polarization was recorded on a PheraStar plate reader (BMG LABTECH) and fitted to a one-site binding model with GraphPad Prism 5.
# (§1) Fluorescence polarization binding assays
# 10 µl of 100 nM FITC-Ahx peptides of either OTULIN (49-67) or p97 (797-806) were aliquoted into a 384-well low volume plate (Corning). Serial dilutions of HOIP PUB into FP assay buffer (20 mM Tris pH 7.4, 100 mM NaCl, 1 mM DTT) were prepared and 10 µl of this was aliquoted to FITC-Ahx peptide-containing wells. Fluorescence polarization was recorded on a PheraStar plate reader (BMG Labtech) using an optics module with $ex = 485 nm and $em = 520 nm. To derive binding constants (KD), polarization values were fitted to a one-site binding model using Graphpad Prism 5. […]
# [2] = tested on: endogenous LUBAC (HOIP, HOIL-1, SHARPIN); assay: coimmunoprecipitation of endogenous LUBAC components with HA-tagged OTULIN; assay type: cell-based; details: HA-OTULIN variants in HEK293T cells, anti-HA IP, western blot
# Procedure: (§2) Transfected HEK293T or U2OS and NOD2 cells were lysed in the presence of protease and phosphatase inhibitors. Clarified lysates were incubated overnight with anti-V5 and anti-HA-agarose resin. […]
# (§3) siOTULIN: […], siMM […]
# (§4) Immunoprecipitation of HOIP-V5 and HA-OTULIN
# (§5) HEK293T or U2OS/NOD2 cells were transfected as indicated. The cells were lysed in IP buffer buffer (25 mM HEPES pH 7.4, 150 mM KCl, 2 mM MgCl2, 1 mM EGTA, 0.5% (v/v) Triton X-100) supplemented with 5 mM NEM (Sigma-Aldrich), cOmplete protease inhibitor cocktail (Roche) and PhosSTOP
# (§6) (Roche). After 30 minutes on ice, the lysates were cleared by centrifugation and incubated overnight at 4 °C with anti-V5-agarose resin or anti-HA-agarose resin. The beads were washed four times in ice-cold IP buffer and the precipitated material was eluted with 0.2 M glycine, pH 2.5. […]
# [3] = tested on: HOIP PUB domain (15N HOIP 1-184); assay: NMR binding (chemical shift perturbation) to 15N-labeled HOIP PUB domain; parameters: species or system Human; details: 15N BEST-TROSY NMR, 100 μM 15N HOIP 1-184, 20 mM phosphate pH 6.8, 50 mM NaCl, 2 mM DTT, 298K
# Procedure: Standard triple-resonance experiments (HNCA, HN(CO)CA, HNCACB, CBCA(CO)NH, and HBHA(CO)NH) were acquired for the assignment of HOIP resonances. Constant time ^13C and ^13C-HSQC were acquired for the methyl and aromatic regions. In addition, (HB)CB(CGCD)HD and (HB)CB(CGCDCE)HE experiments coupled the Cβ of tyrosine resonances to the Hδ and Hε positions of the tyrosine ring, respectively.
# as §1
# 10 µl of 100 nM FITC-Ahx peptides of either OTULIN (49-67) or p97 (797-806) were aliquoted into a 384-well low volume plate (Corning). Serial dilutions of HOIP PUB into FP assay buffer (20 mM Tris pH 7.4, 100 mM NaCl, 1 mM DTT) were prepared and 10 µl of this was aliquoted to FITC-Ahx peptide-containing wells. Fluorescence polarization was recorded on a PheraStar plate reader (BMG Labtech) using an optics module with $ex = 485 nm and $em = 520 nm. To derive binding constants (KD), polarization values were fitted to a one-site binding model using Graphpad Prism 5.
# Nuclear Magnetic Resonance Spectroscopy
# Uniformly labeled 15N or 13C, 15N samples of HOIP were prepared following growth in 2M9 medium supplemented with either 15N NH4Cl or 13C glucose.
# Proteins were purified as described above and all samples were exchanged into NMR sample buffer (20 mM Na2HPO4/NaH2PO4 pH 6.8, 50 mM NaCl, 2 mM DTT). Lyophilized OTULIN and p97 PIM peptides were reconstituted in NMR sample buffer and the pH adjusted to pH 6.8 prior to use. NMR data were acquired at 298K on Bruker Avance III 600 MHz and Avance2+ 700
# MHz spectrometers, equipped with cryogenic triple resonance TCI probes.
# Standard triple resonance experiments (HNCA, HN(CO)CA, HNCACB, CBCA(CO)NH, HBHA(CO)NH) were acquired for the assignment of backbone
# HOIP resonances. In addition, constant-time (ct) 13C and 13C-HSQC were acquired for the methyl and aromatic regions. For assignment of the H",H# resonances of HOIP tyrosines, (HB)CB(CGCD)HD and (HB)CB(CGCDCE)HE spectra were acquired, which coupled the C$ position of the tyrosine resonances to the H"/H# position of the tyrosine ring respectively. […]
# [4] = target: T2, HOIP extended PUB domain (aa 1–184) (UniProt Q96EP0 1-184); assay: FP
# T2 chain: T1 sequence (Q96EP0 1-184)
# endogenous OTULIN = assay: coimmunoprecipitation of endogenous OTULIN with tagged HOIP/HOIL-1; assay type: cell-based; details: tagged HOIP/HOIL-1 constructs, HEK293T or U2OS/NOD2 cells, western blot
# Procedure: as §2, §3, §4, §5, §6
molecule,measurement,setting,value
FITC-Ahx-OTULIN 49-63 pY56: Tyr56-phosphorylated FITC-Ahx-labeled OTULIN peptide (legend: 49–67) ({FITC-Ahx}-AEHEEDM[pY]RAADEIEKEKE),binding to HOIP PUB domain (in words),[1],unable to bind HOIP
"Y56A: fluorescently labeled OTULIN peptide (aa 49–67) with point mutation Y56A ({FITC-Ahx}-AEHEEDMARAADEIEKEKE; UniProt Q96BN8 49-67, looked up, variant Y56A)",binding to HOIP PUB domain (in words),[1],abrogated binding
M55D: fluorescently labeled OTULIN peptide (aa 49–67) with point mutation M55D ({FITC-Ahx}-AEHEEDDYRAADEIEKEKE),binding to HOIP PUB domain (in words),[1],abrogated binding
D54A: fluorescently labeled OTULIN peptide (aa 49–67) with point mutation D54A ({FITC-Ahx}-AEHEEAMYRAADEIEKEKE),reduction of HOIP binding versus wild-type OTULIN peptide,[1],60 fold
OTULIN D54A: HA-tagged full-length OTULIN with PIM point mutation D54A,coimmunoprecipitation of endogenous LUBAC components (in words),[2],Residual binding was still observed
OTULIN Y56F: HA-tagged full-length OTULIN with PIM point mutation Y56F,coimmunoprecipitation of endogenous LUBAC components (in words),[2],abrogated binding
OTULIN 49-67: unlabeled OTULIN PIM peptide (aa 49–67) used in NMR and crystallization (AEHEEDMYRAADEIEKEKE),binding / chemical shift perturbations of HOIP PUB domain (in words),[3],"CSPs and loss of a large number of resonances, a feature common to slow exchange"
OTULIN Y56A: HA-tagged full-length OTULIN with PIM point mutation Y56A,coimmunoprecipitation of endogenous LUBAC components (in words),[2],abrogated binding
Y56W: fluorescently labeled OTULIN peptide (aa 49–67) with point mutation Y56W ({FITC-Ahx}-AEHEEDMWRAADEIEKEKE),reduction of HOIP binding versus wild-type OTULIN peptide,[1],100 fold
OTULIN Y56E: HA-tagged full-length OTULIN with PIM point mutation Y56E,coimmunoprecipitation of endogenous LUBAC components (in words),[2],abrogated binding
B1,Kd,[4],21.3 µM
B2,Kd,[4],64.5 µM
B3,coimmunoprecipitation of endogenous OTULIN (in words),endogenous OTULIN,decreased binding
B4,coimmunoprecipitation of endogenous OTULIN (in words),endogenous OTULIN,decreased binding
B5,Kd,[4],11.2 µM
B6,binding / chemical shift perturbations of HOIP PUB domain (in words),[3],did not interact with the HOIP PUB domain
